In the Human Domainome abundance scans (Beltran et al. 2025):

B1: Nanos homolog 2, residues 63 to 115; numbered along this chain, P60321 (parent)
chain: CNFCKHNGESRHVYSSHQLKTPDGVVVCPILRHYVCPVCGATGDQAHTLKYCP

Variants of: B1
Assay: abundance fitness (aPCA) (normalised: wild type 0, dead -1); higher = more abundant; growth selection in yeast, the domain comes from the species named
Conditions: Homo sapiens

Abundance fitness of substitutions, site by site:
G40: Q -0.172, H 0.051, S -0.052, K 0.183, I -0.394
V27: Q -0.349, M -0.069, T 0.02, C -0.014, R 0.037
R11: G -0.084, N -0.131, L -0.049, S -0.047, D 0.167, T 0.08, A -0.034
K20: W -0.569, C -0.071, M -0.368, H -0.101
P22: F -0.383, M -0.129, A -0.048, H -0.107, Y -0.121
H47: K -0.616, P -0.607, D -0.463, N -0.591, T -0.695
C36: E -0.627, R -0.658, W -1.16, T -0.804, Y -0.726, F -0.888, D -0.444
L19: T -0.041, R -0.372, W -0.089, I -0.149, V -0.113, S -0.186, M -0.051
V25: D -0.148, H -0.489, E 0.015, M -0.051, S -0.046, N 0.08, I 0.03
R32: Q -0.446, A -0.241, V -0.473, L -0.427, E -0.49, F -0.514, C -0.662, D -0.376, M -0.18
Y34: T 0.036, P -0.6, I -0.107, A -0.071, H 0.073
C4: T -0.879, P -0.693, E -0.867, N -0.694, L -1, G -0.802, K -0.63
V35: P -0.341, C -0.253, G -0.306, R -0.1, H 0.293
V26: K -0.031, D -0.509, G -0.441, W -0.46, I 0.033, Y -0.427
I30: F -0.524, C -0.304, Q -0.05, S 0.082, P -0.249, H 0.041, W -0.346, T 0.111
P37: G -0.046, K 0.139, L -0.214, H -0.034, W -0.642
Y14: C 0.036, V -0.011, M -0.274, D -0.213, R -0.153
K50: P 0.145, A -0.284, C -0.42, M -0.063, E -0.185, H -0.249, G -0.298, I -0.809, F -0.418
Q45: S 0.039, C -0.186, A -0.069, Y -0.168, F -0.043
A41: H -0.068, E -0.032, I -0.574, F -0.379, M -0.05, K -0.173, C 0.014, G -0.08, T -0.089, R -0.251
E9: N -0.153, W -0.495, T -0.154, S -0.26, C 0.065, K -0.007, F -0.259, G -0.274, A -0.103
H12: T 0.035, V -0.091, L -0.036, W -0.148, P -0.069, Y -0.101, S 0.126, C -0.06
S16: C 0.077, K -0.262, F -0.594, T -0.335, G -0.035, V -0.562, E -0.163, W -0.557, A -0.117, M -0.047
Q18: I -0.259, L -0.033, P -0.183, F -0.079, M 0.091, G -0.089, T -0.145
T48: M -0.12, D -0.347, A -0.136, G -0.226, Q -0.031
H17: L -0.756, W -1.14
